B1: TCN-542 (5079_A16) (antibody, V domains shown)
VH: QVQLQESGPGLVKPSQTLSLTCTVSGGSISSGNYYWNWVRQHPGKGLEWIGYIYYRGSTFYNPSLKSRVTISIDTSKNQFSLRLSSVTAADTAVYYCAKDTRSSLDNYQYGMDVWGQGTTVTVSS
VL: QTVVTQEPSLTVSPGGTVTLTCASSTGAVTSSYFPNWFQQKPGQAPRPLIYSTTIRHSWTPARFSGSLLGGKAALTLSGVQPEDEADYYCLLYSGGDPVAFGGGTKLTVL
B2: TCN-544 (5082_A19) (antibody, V domains shown)
VH: QVQLQESGPGLVKPSETLSLTCTVSRGSIGHYFWSWIRQPPGKGLEWIGYISYSGSTKYNPSLRSRVTISVDTSKNQFSLNLNSVTATDTALYYCAREDYDILTGAGPGMEVWGQGTTVTVSS
VL: QSMLTQPPSASGTPGQRVTISCSGSSSNIGSNTVNWFKHLPGTAPKLLIYRNDLRPSGVPDRFSGSKSGTSASLAISGLQSEDEADYYCATWDDSLNGFYVFGTGTKVTVL

Legend:
Conditions in all cases: remark: other sources report otherwise
[1] = target: T1, recombinant soluble homotrimeric HA of A/swine/Ontario/01911-2/99 (H4N6) (Influenza A virus A/Swine/Ontario/01911-2/99 (H4N6)); test: HA microarray, BCC supernatant
[2] = target: T2, recombinant soluble homotrimeric HA of A/Japan/305/57 (H2N2) (Influenza A virus A/Japan/305/1957(H2N2)); test: HA microarray, BCC supernatant
[3] = target: T3, recombinant soluble homotrimeric HA of A/Netherlands/219/03 (H7N7) (Influenza A virus A/Netherlands/219/03(H7N7)); test: HA microarray, BCC supernatant
[4] = target: T4, recombinant soluble homotrimeric HA of A/duck/Yangzhou/02/05 (H8N4) (Influenza A virus A/duck/Yangzhou/02/2005(H8N4)); test: HA microarray, BCC supernatant
[5] = target: T5, recombinant soluble homotrimeric HA of A/Vietnam/1203/04 (H5N1) (Influenza A virus A/VietNam/1203/2004(H5N1)); test: HA microarray, BCC supernatant
[6] = target: recombinant homotrimeric HA A/Hong Kong/156/97 H5N1 (Influenza A virus A/Hong Kong/156/97 (H5N1)); test: protein microarray, purified IgG, trimeric HA
[7] = target: recombinant homotrimeric HA A/Vietnam/1203/04 H5N1 (Influenza A virus A/VietNam/1203/2004(H5N1)); test: protein microarray, purified IgG, trimeric HA
[8] = target: recombinant homotrimeric HA A/California/4/09 H1N1 (Influenza A virus A/California/04/2009(H1N1)); test: protein microarray, purified IgG, trimeric HA
[9] = target: recombinant homotrimeric HA A/Anhui/1/05 H5N1 (Influenza A virus A/Anhui/1/2005(H5N1)); test: protein microarray, purified IgG, trimeric HA
[10] = target: recombinant homotrimeric HA A/South Carolina/1/18 H1N1 (Influenza A virus A/South Carolina/1/18 (H1N1)); test: protein microarray, purified IgG, trimeric HA
[11] = target: recombinant homotrimeric HA A/Indonesia/5/05 H5N1 (Influenza A virus A/Indonesia/5/2005(H5N1)); test: protein microarray, purified IgG, trimeric HA
[12] = target: recombinant homotrimeric HA A/Egypt/3300-NAMRU3/08 H5N1 (Influenza A virus A/Egypt/3300-NAMRU3/2008(H5N1)); test: protein microarray, purified IgG, trimeric HA
[13] = target: recombinant homotrimeric HA A/duck/Yangzhou/02/05 H8N4 (Influenza A virus A/duck/Yangzhou/02/2005(H8N4)); test: protein microarray, purified IgG, trimeric HA
[14] = target: recombinant homotrimeric HA A/Japan/305/57 H2N2 (Influenza A virus A/Japan/305/1957(H2N2)); test: protein microarray, purified IgG, trimeric HA
[15] = target: recombinant homotrimeric HA A/Hong Kong/1073/99 H9N2 (Influenza A virus A/Hong Kong/1073/99 (H9N2)); test: protein microarray, purified IgG, trimeric HA
[16] = target: recombinant soluble homotrimeric HA of A/Egypt/3300-NAMRU3/08 (H5N1) (Influenza A virus A/Egypt/3300-NAMRU3/2008(H5N1)); test: trimeric HA microarray, transfection supernatant set 5
[17] = target: T6, recombinant soluble homotrimeric HA of A/northern shoveler/California/HKWF115/07 (H6) (Influenza A virus A/northern shoveler/California/HKWF115/2007(H6N1)); test: as above
[18] = target: recombinant soluble homotrimeric HA of A/Hong Kong/156/97 (H5N1) (Influenza A virus A/Hong Kong/156/97 (H5N1)); test: as above
[19] = target: recombinant soluble homotrimeric HA of A/Indonesia/5/05 (H5N1) (Influenza A virus A/Indonesia/5/2005(H5N1)); test: as above
[20] = target: T1, recombinant soluble homotrimeric HA of …; test: as above
[21] = target: T7, recombinant soluble homotrimeric HA of A/chicken/Vietnam/NCVD-016/08 (H5N1) (Influenza A virus A/chicken/Vietnam/NCVD-016/2008(H5N1)); test: as above
[22] = target: recombinant soluble homotrimeric HA of A/South Carolina/1/18 (H1N1) (Influenza A virus A/South Carolina/1/18 (H1N1)); test: as above
[23] = target: recombinant soluble homotrimeric HA of A/Anhui/1/05 (H5N1) (Influenza A virus A/Anhui/1/2005(H5N1)); test: as above
[24] = target: T4, recombinant soluble homotrimeric HA of …; test: as above
[25] = target: T5, recombinant soluble homotrimeric HA of …; test: as above
[26] = target: T6, recombinant soluble homotrimeric HA of …; test: HA microarray, BCC supernatant
[27] = target: T7, recombinant soluble homotrimeric HA of …; test: HA microarray, BCC supernatant
[28] = target: T8, recombinant soluble homotrimeric HA of A/California/4/09 (H1N1) (Influenza A virus A/California/04/2009(H1N1)); test: HA microarray, BCC supernatant
[29] = target: T9, recombinant soluble homotrimeric HA of A/Solomon Islands/3/06 (H1N1) (Influenza A virus A/Solomon Islands/3/2006(H1N1)); test: HA microarray, BCC supernatant
[30] = target: recombinant homotrimeric HA A/northern shoveler/California/HKWF115/07 H6N4 (Influenza A virus A/northern shoveler/California/HKWF115/2007(H6N1)); test: protein microarray, purified IgG, trimeric HA
[31] = target: recombinant homotrimeric HA A/Solomon Islands/3/06 H1N1 (Influenza A virus A/Solomon Islands/3/2006(H1N1)); test: protein microarray, purified IgG, trimeric HA
[32] = target: recombinant homotrimeric HA A/Hong Kong/2108/03 H9N2 (Influenza A virus A/HK/2108/2003(H9N2)); test: protein microarray, purified IgG, trimeric HA
[33] = target: recombinant homotrimeric HA A/Netherlands/219/03 H7N7 (Influenza A virus A/Netherlands/219/03(H7N7)); test: protein microarray, purified IgG, trimeric HA
[34] = target: recombinant homotrimeric HA A/chicken/Vietnam/NCVD-016/08 H5N1 (Influenza A virus A/chicken/Vietnam/NCVD-016/2008(H5N1)); test: protein microarray, purified IgG, trimeric HA
[35] = target: recombinant homotrimeric HA A/swine/Ontario/01911-2/99 H4N6 (Influenza A virus A/Swine/Ontario/01911-2/99 (H4N6)); test: protein microarray, purified IgG, trimeric HA
[36] = target: T2, recombinant soluble homotrimeric HA of …; test: trimeric HA microarray, transfection supernatant set 5
[37] = target: T3, recombinant soluble homotrimeric HA of …; test: as above
[38] = target: T8, recombinant soluble homotrimeric HA of …; test: as above
[39] = target: T9, recombinant soluble homotrimeric HA of …; test: as above

| Binder | Trimeric HA Binding: RLU [1] [RLU] | Trimeric HA Binding: RLU [2] [RLU] | Trimeric HA Binding: RLU [3] [RLU] | Trimeric HA Binding: RLU [4] [RLU] | Trimeric HA Binding: RLU [8] [RLU] | Trimeric HA Binding: RLU [10] [RLU] | Trimeric HA Binding: RLU [12] [RLU] | Trimeric HA Binding: RLU [13] [RLU] | Trimeric HA Binding: RLU [14] [RLU] | Trimeric HA Binding: RLU [15] [RLU] | Trimeric HA Binding: RLU [16] [RLU] | Trimeric HA Binding: RLU [17] [RLU] | Trimeric HA Binding: RLU [20] [RLU] | Trimeric HA Binding: RLU [21] [RLU] | Trimeric HA Binding: RLU [22] [RLU] | Trimeric HA Binding: RLU [24] [RLU] | other results |
| --- | --- | --- | --- | --- | --- | --- | --- | --- | --- | --- | --- | --- | --- | --- | --- | --- | --- |
| B1 | 350 | 142 | 909 | 332 | 238 | 117 | 730 | 182 | 502 | 588 | 14800 | 2370 | 14300 | 5460 | 1120 | 11600 | Trimeric HA Binding: RLU [5]: 306 RLU; Trimeric HA Binding: RLU [6]: 894 RLU; Trimeric HA Binding: RLU [7]: 1060 RLU; Trimeric HA Binding: RLU [9]: 10500 RLU; Trimeric HA Binding: RLU [11]: 108 RLU; Trimeric HA Binding: RLU [18]: 786 RLU; Trimeric HA Binding: RLU [19]: 1760 RLU; Trimeric HA Binding: RLU [23]: 7410 RLU; Trimeric HA Binding: RLU [25]: 29500 RLU |
| B2 | 316 | 187 | 1620 | 464 | 285 | 148 | 2140 | 380 | 450 | 534 | 19400 | 2920 | 2390 | 3070 | 1330 | 9440 | Trimeric HA Binding: RLU [26]: 1690 RLU; Trimeric HA Binding: RLU [27]: 272 RLU; Trimeric HA Binding: RLU [28]: 281 RLU; Trimeric HA Binding: RLU [29]: 179 RLU; Trimeric HA Binding: RLU [30]: 82 RLU; Trimeric HA Binding: RLU [31]: 1010 RLU; Trimeric HA Binding: RLU [32]: 145 RLU; Trimeric HA Binding: RLU [33]: 203 RLU; Trimeric HA Binding: RLU [34]: 402 RLU; Trimeric HA Binding: RLU [35]: 154 RLU; Trimeric HA Binding: RLU [36]: 1000 RLU; Trimeric HA Binding: RLU [37]: 4650 RLU; Trimeric HA Binding: RLU [38]: 706 RLU; Trimeric HA Binding: RLU [39]: 997 RLU |

Reference: US20150086555A1
